Earlier results as cited in article PMC11133458.

Biological target: Glu14 (UniProt position 14, GAILAEVIGTT)
Conditions: TPP-bound EmrE (Glu14 of monomer A deprotonated)

In the case of “EmrE (multidrug efflux transporter, small multidrug resistance family) (Escherichia coli)”, the pKa is listed as 6.8.
